# In paper doi:10.1101/2020.03.05.978023:
# Tests used:
# [1] = target: Human DND1 (Dead end protein homolog 1) RRM2 domain (139-217) (human); assay: SEC
# [2] = target: Human DND1 (Dead end protein homolog 1) RRM2 domain (139-217) (human); assay: crystal structure
substance,measurement,setting,value
Human DND1 (Dead end protein homolog 1) RRM2 domain (139-217) (domain or fragment),stoichiometry N,[1],2
same,stoichiometry N,[2],2
